Measured values: patent US20210388068A1

B1: anti-CfaE HuMab 68-90 (antibody, human IgG1, V domains shown)
VH: QVQLQQWGAGLLKPSETLSLTCAVYGGSFSAYYWSWIRQPPGKGLEWIGEINHSGNTNYNPSLESRVTISVDTSKNQVSLKQSSVTAADTAVYYCARNWGPNAFDIWGRGTMVTVSS
VL: DIQMTQSPSSVSASVGDRVTITCRASQDITSWLVWYQHKPGKAPKLLIYAASSLQSGVPSRFSGSGSGTDFTLTISSLQPEDFATYYCQQANIFPYTFGQGTKLEIK
B2: anti-CfaE HuMab 68-48 (antibody, human IgG1, V domains shown)
VH: QVQLQQWGAGLLKPSETLSLTCAVYGGSFSGYSWSWIRQSPGKGLEWIGEIYHSGSTNYNPSLKSRVTISGDTSKNQFSLKLSSVTAADTAVYYCARENLQGYYYYGMDVWGQGTTVTVSS
VL: AIQLTQSPSSLSASVGDRVTITCRASQGISSSLAWYQQKPGKAPKLLIYDASSLESGVPSRFSGSGSGTDFTLTISSLQPEDFATYYCQQFNSYPRTFGQGTKVEIK
B3: anti-CfaE HuMab 68-61 (antibody, human IgG1, V domains shown)
VH: QVQLVQSGAEVKNPGSSVRVSCEASGGTFSSFAISWVRQAPGQGLEWMGRIIPILDIVKYAQRFQGRVTISADKSTSTAYMELSSLRSEGTAVYYCARDDIAGSDFDIWGQGTMVTVSS
VL: DIQMTQSPSSLSASVGDRVTITCRASQGISSWLAWYQQKPEKAPKSLIYAASSLQSGVPSRFSGSGSGTDFTLTISSLQPEDFATYYCQQYTSYPYTFGQGTKLEIK

How the values were obtained:
[1] = molecular target: MBP-CfaE-N Arg67Ala mutant (enterotoxigenic Escherichia coli (ETEC)) (UniProt P25734); test: ELISA on plate-bound MBP-CfaE-N Arg67Ala mutant, OD405
[2] = molecular target: MBP-CfaE-N Arg145Ala mutant (enterotoxigenic Escherichia coli (ETEC)) (UniProt P25734); test: ELISA on plate-bound MBP-CfaE-N Arg145Ala mutant, OD405
[3] = molecular target: MBP-CfaE-N Asn127Ala mutant (enterotoxigenic Escherichia coli (ETEC)) (UniProt P25734); test: ELISA on plate-bound MBP-CfaE-N Asn127Ala mutant, OD405
[4] = molecular target: MBP-CfaE-N Thr91Ala mutant (enterotoxigenic Escherichia coli (ETEC)) (UniProt P25734); test: ELISA on plate-bound MBP-CfaE-N Thr91Ala mutant, OD405

Binder	EC50 (read off the curve) [1] [µg/mL]	EC50 (read off the curve) [2] [µg/mL]	EC50 (read off the curve) [3] [µg/mL]	EC50 (read off the curve) [4] [µg/mL]
B1	0.04	0.03	0.01	0.02
B2	0.04	0.03		
B3	0.04	0.03		
